A short description of data set [1]: Arginase specific activity. Type of data set: biochemical. The conditions noted are these: purified arginase sample, or after pegylation with mPEG-SPA MW 5,000 (mole ratio 1:50). On the procedure: The purified Arginase as prepared using the methods described above was used for pegylation. Using the previous examples to illustrate the method, an arginase sample with specific activity=518 I.U./mg was dissolved in PBS buffer before carrying out pegylation.
The mPEG-SPA (cat. no. 2M4MOH01, Nektar, USA), MW 5,000 (5.82 g) was added into 555 ml of the purified Arginase (813.64 mg, 1.466 mg/ml) solution slowly in a 1 L beaker and then stirred for 2 h 40 min at room temperature (mole ratio of Arginase:mPEG-SPA=1:50). The mixture was then dialyzed extensively by ultra-dialysis against 15 L of PBS buffer using the F50(S) capillary dialyzer (Fresenius Medical Care, Bad Homburg, Germany) to remove all the unincorporated PEG. The mPEG-SPA uses amino groups of lysines and the N-terminus of the protein as the site of modification. In this example, the measured specific activity of the pegylated Arginase was as high as 592 I.U./mg.

Data set [2] can be described thus: ½-life determination of pegylated Arginase in vitro in human blood plasma. It is filed as in vitro ADME. As to conditions: 37° C., 0.24 mg/ml pegylated Arginase. On the procedure:
As used herein, the term “half-life” (½-life) refers to the time that would be required for the concentration of the Arginase in human plasma in vitro, to fall by half.
Purified Arginase (1 mg) was dissolved in 1 ml of 125 mM borate buffer solution (pH 8.3) on ice. Activated PEG (mPEG-SPA, MW 5,000) (7.14 mg) was added into the protein solution slowly at a mole ratio of Arginase:PEG=1:50. The mixture was stirred on ice for 2.5 h.
Pegylated Arginase (305.6 μl) at a concentration of 1 mg/ml was added into human plasma (1 ml) and the final concentration of pegylated Arginase was 0.24 mg/ml. The mixture was divided into 20 aliquots in eppendorf tubes (65 μl mixture in each eppendorf tube) and then incubated at 37° C. A 1-2 μl portion of the mixture from each eppendorf tube was used to test the Arginase activity. In this example, the ½-life was determined to be approximately 3 days. It took about 3 days to reduce the relative activity from 100% to 50%.

B1: pegylated Arginase: Arginase I modified by pegylation with mPEG-SPA MW 5,000 to increase stability and minimize immunoreactivity (protein, UniProt P05089 1-322, looked up)
Arginase-1: MSAKSRTIGIIGAPFSKGQPRGGVEEGPTVLRKAGLLEKLKEQECDVKDYGDLPFADIPNDSPFQIVKNPRSVGKASEQLAGKVAEVKKNGRISLVLGGDHSLAIGSISGHARVHPDLGVIWVDAHTDINTPLTTTSGNLHGQPVSFLLKELKGKIPDVPGFSWVTPCISAKDIVYIGLRDVDPGEHYILKTLGIKYFSMTEVDRLGIGKVMEETLSYLLGRKKRPIHLSFDVDGLDPSFTPATGTPVVGGLTYREGLYITEEIYKTGLLSGLDIMEVNPSLGKTPEEVTRTVNTAVAITLACFGLAREGNHKPIDYLNPPK
modifications: mPEG-SPA 5 kDa
In the case of B1, in data set [1], the specific activity stood at 592 I.U./mg. The “½-life (time for relative Arginase activity to fall from 100% to 50%)” value in data set [2] is recorded as “approximately 3 days”.

B2: arginase: Recombinant human Arginase I with N-terminal 6xHis tag (SEQ ID NO: 3), produced in B. subtilis LLC101 (protein, listed as Homo sapiens)
chain: MHHHHHHMSAKSRTIGIIGAPFSKGQPRGGVEEGPTVLRKAGLLEKLKEQECDVKDYGDLPFADIPNDSPFQIVKNPRSVGKASEQLAGKVAQVKKNGRISLVLGGDHSLAIGSISGHARVHPDLGVIWVDAHTDINTPLTTTSGNLHGQPVSFLLKELKGKIPDVPGFSWVTPCISAKDIVYIGLRDVDPGEHYILKTLGIKYFSMTEVDRLGIGKVMEETLSYLLGRKKRPIHLSFDVDGLDPSFTPATGTPVVGGLTYREGLYITEEIYKTGLLSGLDIMEVNPSLGKTPEEVTRTVNTAVAITLACFGLAREGNHKPIDYLNPPK
modifications: N-terminal 6xHis tag
With B2, the specific activity in data set [1] worked out at 518 I.U./mg.

These data come from US20080292609A1, “Use of Arginase in Combination with 5FU and Other Compounds for Treatment of Human Malignancies” (priority 2007, published 2008).
